Measurements reported in article PMC6610696 (Structure (London, England : 1993), 2019).
Read-outs that look alike come from different tables or passages of the source. Square brackets hold non-standard residues; d marks the D form. Ends that are not written are not given here. pS = N[C@@H](COP(=O)(O)O)C(=O)O

B3: ScSen1-NIM2-FAM peptide (peptide)
peptide: DDEDDYTPSISD
modifications: also: 5-FAM label: N-terminal per methods, C-terminal per resources table

Tests used:
Test in all cases: fluorescence polarisation
[1] = molecular target: T1, S. cerevisiae Nrd1 CID (residues 6-151), N-terminal hexa-histidine tag (S. cerevisiae, UniProt P53617 6-151)
T1 sequence (looked up): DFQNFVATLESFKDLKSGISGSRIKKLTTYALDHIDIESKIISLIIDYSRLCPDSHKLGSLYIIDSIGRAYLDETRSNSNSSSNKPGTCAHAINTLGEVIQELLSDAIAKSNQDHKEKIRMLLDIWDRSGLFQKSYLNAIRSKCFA

ScSen1-NIM2-FAM peptide = molecular target: B3
[2] = molecular target: T1, S. cerevisiae Nrd1 CID (residues …); remark: listed apart in the source

EQEDDYKLPMEYIT [ScSen1-NIM1 peptide]
Kd [1]: 7.6 µM

EAEDPYDLNPHPQ [ScSen1-NIM3 peptide]
Kd [1]: 38 µM

SPT[pS]PSYSPT[pS]PS [Pol II Ser5P CTD peptide]
Kd [1]: 216 µM

B1: Nrd1 CID D70A mutant (domain or fragment, S. cerevisiae, UniProt P53617 6-151, looked up)
chain: DFQNFVATLESFKDLKSGISGSRIKKLTTYALDHIDIESKIISLIIDYSRLCPDSHKLGSLYIIASIGRAYLDETRSNSNSSSNKPGTCAHAINTLGEVIQELLSDAIAKSNQDHKEKIRMLLDIWDRSGLFQKSYLNAIRSKCFA
fold increase in Kd for NIM2 against wild-type CID (ScSen1-NIM2-FAM peptide): 30 fold

B2: Nrd1 CID Y67A mutant (domain or fragment, S. cerevisiae, UniProt P53617 6-151, looked up)
chain: DFQNFVATLESFKDLKSGISGSRIKKLTTYALDHIDIESKIISLIIDYSRLCPDSHKLGSLAIIDSIGRAYLDETRSNSNSSSNKPGTCAHAINTLGEVIQELLSDAIAKSNQDHKEKIRMLLDIWDRSGLFQKSYLNAIRSKCFA
fold increase in Kd for NIM2 against wild-type CID (ScSen1-NIM2-FAM peptide): 90 fold

B3
Kd [2]: 0.56 µM

B4: Nrd1 CID D70N mutant (domain or fragment, S. cerevisiae, UniProt P53617 6-151, looked up)
chain: DFQNFVATLESFKDLKSGISGSRIKKLTTYALDHIDIESKIISLIIDYSRLCPDSHKLGSLYIINSIGRAYLDETRSNSNSSSNKPGTCAHAINTLGEVIQELLSDAIAKSNQDHKEKIRMLLDIWDRSGLFQKSYLNAIRSKCFA
fold increase in Kd for NIM2 against wild-type CID (ScSen1-NIM2-FAM peptide): 3 fold

DDEDDYTPSISD [ScSen1-NIM2 peptide]
binding result [1]: binds

DDENDYTPSISD [ScSen1-NIM2-D2056N peptide]
fold increase in Kd against wild-type NIM2 [1]: 13 fold

DDEDDYTASISD [ScSen1-NIM2-P2060A peptide]
fold increase in Kd against wild-type NIM2 [1]: ~20 fold

DDEDDYTVSISD [ScSen1-NIM2-P2060V peptide]
fold increase in Kd against wild-type NIM2 [1]: ~20 fold
